Experimental data from the DeepSol protein solubility set.

Test: soluble on expression in E. coli; label from the status in PepcDB or PDB records

For “MGSDKIHHHHHHMDKRIFGIETEFGISYSSPDSRPLAPEEVARYLFRKVVSWGRSSNVFLTNGSRLYLDVGSHPEYATAECDDLGQLIAHDRAGELILDDLVDEAQERLAAEGFNGTVYLFKNNTDSAGNSYGSHENYLIPRRGEFSRLAEILIPFLVTRQLIAGAGKILKTPHGATFAFSQRADHIWEGVSSATTRSRPIINTRDEPHADAEFYRRLHVIVGDSNMSETTALMKVGTVDLILRMIEAGVIMRDMRMENPIRSIREISHDLSGRALIRLANGRQLTALEIQREYLNKVTSFVAENGAHNQHVPLILDLWERTLTAIESGDTSTIDTEIDWAIKKKLMDSYRKRHGLGLDAPRIAQLDLTYHDISRTRGLYYLLQSRGAVRRVVDDTAVKDAVDAPPQTTRAKLRGDFVRRAQELGRDYTVDWVHLKLNDRAHQTILCKDPFRNVDERVDALLDSMG”, which “soluble on expression in E. coli” value is on record?
Its value is “not soluble”.

Which “soluble on expression in E. coli” value does the source give for “MAGDPMKIMIFICGEGLGHTSRCLALGKELLAAGHEIEFGAYGYSRDLVEKTGYRIHEIPSEIKLVGKAGGFDLSGSIEATLKNARILGGPKVLKLIKDFKPDVVVSDSYYLGTLAAMLLNIPVYLIINQSNMEDFFKNRGVPIRLLGDLTKKFYREVFEKTDKIIIPDYPLPYTVCRKNLNFSPGLWEKLEHHHHHH” here?
The value was “not soluble”.

Which “soluble on expression in E. coli” value does the source give for “MLKFRASFLSLALMLAVPFAPQAVAKTAATTAASQPEIASGSAMIVDLNTNKVIYSNHPDLVRPIASITKLMTAMVVLDARLPLDEILKVDISQTPEMKGVYSRVRLNSEISRKNMLLLALMSSENRAAASLAHYYPGGYNAFIKAMNAKAKALGMTHTRFVEPTGLSIHNVSTARDLTKLLIATKQYPLIGQLSTTREDMATFSHPAYTLPFRNTNHLVYRDNWNIQLTKTGFTNAAGHCLVMRTVINNKPVALVVMDAFGKYTHFADASRLRTWIETGKVMPVPAAALSYKKQKAAQMAAASASAGAQTAQND” here?
The value was “not soluble”.

Which “soluble on expression in E. coli” value does the source give for “MAVKISGVLKDGAGKPVVNCAIELRARRTSPTVVAHVVATCVTDNNGAYVIEAEPGYYEVALHCNGWQPTRVGDIDVAPTDAPGTLNAFLNAPKDGDLRPEVMKRFEEMVAQAQQSAGAAAGNAQQTAQDVAAAATARDDAQRFAEKARQDATVTAEDRKATAEDVTSTGANAAAAGQSAQDAAGYARAAEQAKNDIDAALTGTLKMANHLSEIAAAGEKAQQKSRDNLGLKSAATMEAQSDIYDRTKGRLAIPGAFGFGCAFLPEDVIRFDTKSDFLAWVRNALPGEYSVAGPYGIIIPDTRFEGVLSIRWTDARPETTEPRYRAKSLTFYGINGPIYHTRYRYWPISRLTG” here?
Its value is “not soluble”.

For “MTQTQPVTPTPPASFQTQHDPRTRLGATPLPGGAGTRFRLWTSTARTVAVRVNGTEHVMTSLGGGIYELELPVGPGARYLFVLDGVPTPDPYARFLPDGVHGEAEVVDFGTFDWTDADWHGIKLADCVFYEVHVGTFTPEGTYRAAAEKLPYLKELGVTAIQVMPLAAFDGQRGWGYDGAAFYAPYAPYGRPEDLMALVDAAHRLGLGVFLDVVYNHFGPSGNYLSSYAPSYFTDRFSSAWGMGLDYAEPHMRRYVTGNARMWLRDYHFDGLRLDATPYMTDDSETHILTELAQEIHELGGTHLLLAEDHRNLPDLVTVNHLDGIWTDDFHHETRVTLTGEQEGYYAGYRGGAEALAYTIRRGWRYEGQFWAVKGEEHERGHPSDALEAPNFVYCIQNHDQIGNRPLGERLHQSDGVTLHEYRGAAALLLTLPMTPLLFQGQEWAASTPFQFFSDHAGELGQAVSEGRKKEFGGFSGFSGEDVPDPQAEQTFLNSKLNWAEREGGEHARTLRLYRDLLRLRREDPVLHNRQRENLTTGHDGDVLWVRTVTGAGERVLLWNLGQDTRAVAEVKLPFTVPRRLLLHTEGREDLTLGAGEAVLVG”, which “soluble on expression in E. coli” value is on record?
The value was “soluble”.

With “MGTPKPRILPWLVSQLDLGQLEGVAWVNKSRTRFRIPWKHGLRQDAQQEDFGIFQAWAEATGAYVPGRDKPDLPTWKRNFRSALNRKEGLRLAEDRSKDPHDPHKIYEFVNSGVGDFSQPDTS” as the sequence, how does the “soluble on expression in E. coli” value read?
Its value is “soluble”.

With “MSLQGQIDIPLDIVGRWQADQSAYELAKTYYWAKVAHLAEHNDQLAQPTYEGAHLADISEINNAPATARRMLVVSSDLFRAQQTAHAFADLMGLDVELDPRLRERSFGEWEGMTREEICEHYADDYHSWRAHTGGETKHGVESRIHTGRRGAEAVRDIVAKHHDETMPTTLLLVGHGSWIVATVAVLLDMDPDDLNNVGAMRNAFWTRMTPHTDPRNADRPTWKLEEFNQGPAIASEGHHHHHH” as the sequence, how does the “soluble on expression in E. coli” value read?
Its value is “soluble”.

For “MGSDKIHHHHHHMWMNGFARWMDKLKVLSSEAGSKACWGYDACPAGDGIIASIDGYSMDSSRLPWMSLGDWGWKSVVAAASDVAASGGAPFHVMYSLGLDSVERAVDVARGVGEAAVWMGATVGKSDFNTSKSPWIDVAVLGKAEKPLGRFGAKPGMTLVQVGASGYGLLSHLTLQGRLSRDDLPGPVVEYTRRPKPPLRIGPELSSCEAAASIDNSDGLGASLHLLGVESGVSVVIDDILVDRHVEKVLDELGLEKWAVLQSWEDYNIVAVGGDGSIDCILRWCRRLNIECATVGYTSSDGAGRVLIEGGRREFRVSGWTWL”, which “soluble on expression in E. coli” value is on record?
Its value is “not soluble”.

With “MKKIVFLLLLCVACCMNAQEFHLIPKVGLNLANTTGEVDSKVRPGLNIGLGGDVMLTERFGIETGVYYSMQGSKYKGGGVSYTDKLDYINVPVYAKEFIYKGLYVFGGPQFSFNVNSENKSSSDYGTTVIGMNVIRKFDCGVGLGAGYQFERGLLISLNYNIGLINVNKSWASDSNPKANNSVVQLNVGWRFAL” as the sequence, how does the “soluble on expression in E. coli” value read?
The value was “not soluble”.

With “MPEGILPIERDLLRFKEIVRGEVKKRVREFLTREELFGQVEGRLVSIPLPQLEIPKIVHGEPLGEGLGLGGPGEEALGPGGHIPVAELELEEFLDLVGEALRLPRLRPKGEGEVTEEALRHTTIARKGPRGLRHVRRTLKESLKRALQSGEYRPEDPLLVPEREDLRYKAPRRKPIPHAQAVVLFALDVSGSMREEELKLVKTLSFWITLWIKRHFPRLERRYLLHDAEAWEVPEEEFFKAREGGGTRISSALLLAEEILKAYPEAFYNRYLFHFSDGENWQGDTPLALEALRRLLPSLALYGYAQVESPYGQGHFLEEVQEALGGREGVALAAVRGREDLPVALKRLLGG” as the sequence, how does the “soluble on expression in E. coli” value read?
Its value is “soluble”.

For “MKGSTIGTETKECGKETDFCYNGTADISSFSKFQKAGCNTVICQFHANKCFEQNVSGQLLTFCCCNTDDLCNGGAVTDSGSLFDRGLSVLKGLVSAGKK”, which “soluble on expression in E. coli” value is on record?
The value was “not soluble”.

Which “soluble on expression in E. coli” value does the source give for “SLGKILSKTAIAIVLASGLLSACTSTTDVFHNGYVMDDQSLQLIPEGSSREQVLLTMGTPSTTATFGNEVFYYISQKRVRRAAFLKPSLVEQNILAIYFNKDGVIERKANYTLQDGKVFDSISRTTPTGGKDLTFLQQLLSGGTSGANIAKS” here?
The value was “soluble”.

With “MAHHHHHHMSSRIGHAGTGMPTRGIASFPNSPPAVRNSCSTADTEGFGVSMESTIFTGTFSTAACAHAPTRRTVEAREQTSTVLDHLVTHIVDVPFFLARNAEERAHGCSLSLATAACPGTKLVMRNPRRRLISHSSQTHGAPASSHWPKVLFVPDSSSQRLAAPP” as the sequence, how does the “soluble on expression in E. coli” value read?
The value was “not soluble”.

Which “soluble on expression in E. coli” value does the source give for “MGSDKIHHHHHHMIDFIYSFQNMEQINSSSWHLPTQYFLNRNNKMEATNTHDIQGLSARKTVEAYLAAFAEGKLDDIVSLLDDNVVWHIDGEPGVSTVGLLQGPGRVRRWLQNFPQNFRPLDFSISDIIAHNDSVLVLGRFRHTVLSTGNAVGSDMIIHFKVSGSKITRYQMFEDSALLSRAFDASDEWQLQQVRINGTLYRYRDIGEGPTLIFAHGLFANHEIFSAQFQILSKSYRCIVLDMPGHGLSEYDPAGWKLDDLSRDLALMIQELSLGKVTFIGQSQGGMVAIRLAAHYPQLVSGLVLIGTSARAEFPERLQNWHRQRDILLTGSEHAREDLFKKIQSHINNEAWLQNNQGEAARERRIMLSHNRTGLALALDAAVFERGDITELLADISAPTLIICGEQDTATPVELSQEIATLIADASILILAKTGHHPPTEAAQAVTAAIAEFLKLECSNHH” here?
The value was “not soluble”.

Which “soluble on expression in E. coli” value does the source give for “MGSDKIHHHHHHMNNKIYFTPGPSELYPTVRQHMITALDEKIGVISHRSKKFEEVYKTASDNLKTLLELPSNYEVLFLASATEIWERIIQNCVEKKSFHCVNGSFSKRFYEFAGELGREAYKEEAAFGKGFYPADITVPADAEIICLTHNETSSGVSMPVEDINTFRDKNKDALIFVDAVSSLPYPKFDWTKIDSVFFSVQKCFGLPAGLGVWILNDRVIEKSKALLAKRKSIGTYHTIPSMLEKARVNQTPETPNAMNIFLLGKVTGDMLQISADGIRKQTEEKAALINTYIESSKVFSFGVEDAKLRSMTTIVANTTMLPGEINKILEPFDMAVGAGYGSKKETQIRIANFPAHSLEQVHKLVQTLKEKIG” here?
Its value is “not soluble”.

For “MHEVVTISVSQRANHLTTQFFNIQEGYLQLSKEQQVNDSKIFLNSVVDKVSKTISYAPRALLWDARTGNGSLGTYQYSESQDYHFGNEDKFKEQTVIKTHPRIPKSEYQSSLDAGAPLPCLNRENTMYWSDYSKLIYGPSSFNILRNWYHDTENPNQPDFQNLGERKFDRYSIGYDEFTENYLQEFFDGNLHRELEKCDTLQGFNLVSDMESGWGGFSSALLVELRNELPKKAVFSWGHNEDDPFTDDFPMKRLSKKWLPIISNKLRSTINMMQESDLYFPLYAAPGLTNWETAGKSCRIFDSINATISQSNLEQRKTMDYLTTAITLGYSSRNMVTGMVIGDTDYSFCSRVLPFKNSHKPNSTHIFSKSFIDRGNQTHKHHSEPDSRSKMIEMYTHRYFPSDTIPTEFSNDREFVLELESSEKNRDIFKHWNEFVVRYFKNDSDREELKNELSDYASAYESGWYEDEDSGDDDM”, which “soluble on expression in E. coli” value is on record?
Its value is “not soluble”.

For “GQELPPGTYRVDIYLNNGYMATRDVTFNTGDSEQGIVPCLTRAQLASMGLNTASVAGMNLLADDACVPLTTMVQDATAHLDVGQQRLNLTIPQAFMSNRARGYIPPELWDPGINA”, which “soluble on expression in E. coli” value is on record?
Its value is “soluble”.

For “IVGGYTCAANSIPYQVSLNSGSHFCGGSLINSQWVVSAAHCYKSRIQVRLGEHNIDVLEGNEQFINAAKIITHPNFNGNTLDNDIMLIKLSSPATLNSRVATVSLPRSCAAAGTECLISGWGNTKSSGSSYPSLLQCLKAPVLSDSSCKSSYPGQITGNMICVGFLEGGKDSCQGDSGGPVVCNGQLQGIVSWGYGCAQKNKPGVYTKVCNYVNWIQQTIAAN”, which “soluble on expression in E. coli” value is on record?
The value was “soluble”.

With “MLKEAIYHRPKDNYAYAYDEKTIHIRIRTKRDDVQSTTLIYGDPYEWKDGKWISSSTPMKKTGSTALFDYWFISIEPKFKRLRYGFELKNDTDTLIYAERGFFSTTPNDDVGNFFCFPFIHANDVFKAPSWIKDTVWYQIFPERFANGDHTLNPENTLPWGSAEPTPTNFFGGDFAGIIQNLDYLVKLGISGIYFTPIFKAHSNHKYDTIDYMEIDPQFGTKETFKELVQACHTHGIKVMLDAVFNHSGYFFDKFQDVLQNGEQSAYKEWFHIHEFPIRTEPLPNYDTFAFTPYMPKLNTAHPDVKEYLLEVGRYWVREFNIDGWRLDVANEVDHNFWREFRSEIKALNSEVYILGEIWHDALPWLQGDQFDAVMSYPVTNALLSYFANDSIKANEFMKQITESLHSYSMNVNEAAFHLLDSHDTPRILTTCNGDKNKLKLLYVFHLSFIGSPCIYYGDEIGMDGGMDPDCRKCMVWDTEEQDHTLFTHVQTLISLRKQYKAFGGHGTFQFIEANDEYNYISYTKTYEDETIFFVLNPTNSDITASLPLHVTGKKIINIYTNEEFSAEASVLQVTLPPYGFSILKW” as the sequence, how does the “soluble on expression in E. coli” value read?
Its value is “not soluble”.

With “MAHHHHHHMVNRSTRLQRGPLKKKTTAVAARTSSHAEQPCADGPAKTSSPQTNSIKNVEMTVGVHASPAVAVGDTPQGKLRLRRRAKKDRPLVAAKTDMKSTVRNRKRGRARGSQPGRGSTATTIVHDEQRVTRRPAGGNRQRNQHRQLAEKLVAREEHQSRKKAAEKRMETAKAELALFDQVMQIPSFEENPFAAIEGHLNGTMAFLQPQTPDVGRRKLEE” as the sequence, how does the “soluble on expression in E. coli” value read?
Its value is “not soluble”.
